From the supplement of paper PMC10126150
± gives the standard deviation of the averaged measurements.

System: ATP
Test: switch fluorescence ratio, 500 uM ATP over buffer (Cy3 cluster intensity, sum of 5 cycles each) (fold (ratio)); higher = stronger signal-on switching upon ATP binding; sequences stand for … in TCGTCGGCAGCGTCAGATGTGTATAAGAGACAGTTTTTTTTTTTTTTTTTTTTTTTTT…TC
Conditions: aptamer strand: ATP DNA aptamer (quencher-CACCTGGGGGAGTATTGCGGAGGAAGG + anchor), 100 nM annealed; ATP concentration: 500 uM
Method in brief: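 Cy3-labelled switching-strand clusters on a modified Illumina MiSeq flow-cell were annealed to 100 nM quencher-labelled ATP aptamer, imaged in selection buffer, then imaged after 15 min with 500 uM ATP at 22 °C. Five buffer/ATP cycles ran, with NaOH stripping and re-annealing between them. The fluorescence ratio is summed target-cycle over summed buffer-cycle Cy3 intensity per cluster, averaged per switch-domain sequence. Clusters outside 100-1000 RFU were excluded.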
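Note: ATP exposure 15 min at 22 °C before imaging.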

Sequence	switch fluorescence ratio
TGGGAAAGGC	1.07 ± 0.061
TGGGAAATTT	1.1 ± 0.12
TGGGAACGGG	0.983 ± 0.018
TGGGAAGAGT	0.996 ± 0.028
TGGGAAGGGG	0.998 ± 0.013
TGGGAAGTGG	1.04 ± 0.071
TGGGAATGGG	0.986 ± 0.011
TGGGAATTTT	1.01 ± 0.049
TGGGACGGGC	0.98 ± 0.049
TGGGAGAAAG	0.999 ± 0.024
TGGGAGAGGG	1.01 ± 0.02
TGGGAGAGTA	0.996 ± 0.034
TGGGAGGAAA	1.01 ± 0.039
TGGGAGGAGG	1.01 ± 0.077
TGGGAGGCCT	1.02 ± 0.021
TGGGAGGGCT	1.05 ± 0.093
TGGGAGGGGT	1.01 ± 0.014
TGGGAGGTGT	1.04 ± 0.028
TGGGAGTAAA	1.02 ± 0.027
TGGGAGTACT	1.0104 ± 0.00041
TGGGAGTCTG	0.9898 ± 0.0047
TGGGAGTGGG	0.983 ± 0.019
TGGGATACGG	1.61 ± 1

Sequence	switch fluorescence ratio
TGGGATACTG	1 ± 0.013
TGGGATAGAG	1 ± 0.021
TGGGATATTC	0.9991 ± 0.0032
TGGGATTAGT	0.9868 ± 0.00058
TGGGCAAGGT	1.05 ± 0.038
TGGGCAGGGG	1.3 ± 0.57
TGGGCCAGA	1.01 ± 0.024
TGGGCCGCGC	1.04 ± 0.046
TGGGCCTAAG	0.968 ± 0.061
TGGGCG	0.994 ± 0.018
TGGGCGAATG	0.9946 ± 0.0058
TGGGCGGGGC	0.998 ± 0.018
TGGGCGGGGG	1.03 ± 0.036
TGGGCGGTCT	1.03 ± 0.039
TGGGCTCCTT	1 ± 0.043
TGGGCTGCTT	0.965 ± 0.017
TGGGGAAAAC	1.02 ± 0.051
TGGGGAAATA	1.41 ± 0.57
TGGGGAACTT	1.03 ± 0.041
TGGGGAATAA	1.01 ± 0.022
TGGGGACGGG	1 ± 0.046
TGGGGACTTT	1.04 ± 0.045
TGGGGAGAAC	1.055 ± 0.0077

Sequence	switch fluorescence ratio
TGGGGATACT	1.04 ± 0.036
TGGGGATAGC	1.02 ± 0.053
TGGGGATCAC	1.01 ± 0.071
TGGGGATGGG	0.996 ± 0.029
TGGGGATGGT	0.991 ± 0.062
TGGGGATTGT	0.968 ± 0.023
TGGGGCAAGG	1.04 ± 0.031
TGGGGCACGG	1.09 ± 0.19
TGGGGCCTTT	0.9981 ± 0.0045
TGGGGCTAAT	1.02 ± 0.034
TGGGGCTCTT	1 ± 0.013
TGGGGCTTTG	1.03 ± 0.026
TGGGGGACGC	1.08 ± 0.045
TGGGGGACTC	0.988 ± 0.023
TGGGGGAGG	0.9974 ± 0.0058
TGGGGGAGGC	0.973 ± 0.042
TGGGGGAGTG	0.985 ± 0.024
TGGGGGATAT	1.05 ± 0.052
TGGGGGATTT	1.27 ± 0.74
TGGGGGCACG	1 ± 0.026
TGGGGGCCAT	0.999 ± 0.014
TGGGGGCCGA	1.049 ± 0.0034
TGGGGGCTAT	0.989 ± 0.053

Sequence	switch fluorescence ratio
TGGGGGCTTA	0.99 ± 0.059
TGGGGGCTTC	0.9896 ± 0.0091
TGGGGGGAAA	1.01 ± 0.054
TGGGGGGAGC	1 ± 0.022
TGGGGGGATA	0.994 ± 0.045
TGGGGGGCAG	0.969 ± 0.017
TGGGGGGCAT	1.07 ± 0.19
TGGGGGGCTG	0.983 ± 0.048
TGGGGGGGCG	0.998 ± 0.04
TGGGGGGGGC	1.01 ± 0.034
TGGGGGGGGT	1.02 ± 0.18
TGGGGGGGTA	0.991 ± 0.026
TGGGGGGTCC	1.01 ± 0.039
TGGGGGGTGA	0.997 ± 0.049
TGGGGGTAAC	1.1 ± 0.18
TGGGGGTACT	1.01 ± 0.011
TGGGGGTATC	0.978 ± 0.024
TGGGGGTCGC	1.01 ± 0.019
TGGGGGTGAA	1.02 ± 0.018
TGGGGGTGAC	1.04 ± 0.038
TGGGGGTGCT	1 ± 0.013
TGGGGGTTAG	1.01 ± 0.021
TGGGGGTTGA	1.01 ± 0.028

Sequence	switch fluorescence ratio
TGGGGTAAAG	1.01 ± 0.033
TGGGGTAAGG	1.01 ± 0.022
TGGGGTAGGG	0.998 ± 0.026
TGGGGTAGTG	1.01 ± 0.025
TGGGGTATAG	1.01 ± 0.018
TGGGGTCAAG	0.991 ± 0.01
TGGGGTCTAG	0.969 ± 0.01
TGGGGTCTGG	0.976 ± 0.026
TGGGGTCTGT	0.993 ± 0.02
TGGGGTGCAG	1.03 ± 0.017
TGGGGTGCAT	0.993 ± 0.051
TGGGGTGTTT	0.983 ± 0.045
TGGGGTTATA	1.02 ± 0.023
TGGGGTTGGT	0.993 ± 0.018
TGGGGTTGTC	0.993 ± 0.034
TGGGGTTTGC	0.991 ± 0.032
TGGGTAAGGT	0.993 ± 0.028
TGGGTAATCA	0.981 ± 0.036
TGGGTAGAAA	0.975 ± 0.032
TGGGTAGGCG	1.02 ± 0.016
TGGGTATAAA	0.976 ± 0.029
TGGGTATAAC	1 ± 0.018
TGGGTATACG	1.01 ± 0.049

Sequence	switch fluorescence ratio
TGGGTATATT	0.987 ± 0.011
TGGGTATGT	1.03 ± 0.0087
TGGGTATTTT	1.01 ± 0.026
TGGGTCAATA	1.03 ± 0.054
TGGGTCCGCG	1.123 ± 0.0092
TGGGTCCTTG	0.9894 ± 0.0014
TGGGTGAAGC	0.991 ± 0.059
TGGGTGCGCG	1.014 ± 0.0063
TGGGTGCGGT	0.991 ± 0.012
TGGGTGGGCC	0.981 ± 0.023
TGGGTGTCGG	1.04 ± 0.019
TGGGTGTGGT	1 ± 0.025
TGGGTGTTAA	0.974 ± 0.055
TGGGTGTTGG	1.01 ± 0.057
TGGGTTAACA	0.991 ± 0.018
TGGGTTACCT	1.05 ± 0.01
TGGGTTAGCT	1.04 ± 0.039
TGGGTTAGTG	0.962 ± 0.017
TGGGTTCGAT	1.02 ± 0.015
TGGGTTGATG	0.959 ± 0.023
TGGGTTGGCA	0.987 ± 0.029
TGGGTTGTCG	1.02 ± 0.016
TGGGTTGTGT	0.988 ± 0.028

Sequence	switch fluorescence ratio
TGGGTTTCTA	0.964 ± 0.021
TGGGTTTGCG	0.982 ± 0.021
TGGGTTTGGT	1.01 ± 0.014
TGGGTTTTAG	0.977 ± 0.013
TGGTAAAGTG	1.08 ± 0.1
TGGTAATGGG	1.01 ± 0.049
TGGTAATTGG	0.98 ± 0.01
TGGTACGTAG	1.03 ± 0.034
TGGTACGTGG	0.974 ± 0.032
TGGTAGAGTT	1 ± 0.016
TGGTAGCAGT	0.989 ± 0.037
TGGTAGGGAA	0.982 ± 0.014
TGGTATAGTA	0.993 ± 0.019
TGGTATATTA	0.983 ± 0.027
TGGTATCGGA	0.977 ± 0.021
TGGTATGCGT	1.02 ± 0.024
TGGTATTATT	0.998 ± 0.024
TGGTATTGCT	0.9955 ± 0.0098
TGGTCCAGTG	1.03 ± 0.089
